Residue numbers refer to the chain shown, from its start.
B1: PA01P2E07 (antibody, V domains shown)
VH: QLQLQESGSGLVKPSQTLSLTCAVSGGSITSGTYSWTWIRQSPEKGLEWIGYIYYTGSTYYNPSLGRRVTISGDTSNNEFSLNLKSVTAADTAVYYCARGIHRGGVLDFWGQGILVTVSS
VL: EIVLTQSPATLPLSPGERATLSCRASQSLDKYLAWYQQKPGQAPRLLIYDTSKRATGIPARFSGSGSGTDFTLTISSLEPEDFAVYFCQQRNNWPPYTFGQGTKVEMK
notes: subject PA01; also called Clone PA01P2E07
B2: PA01P2E06 (antibody, V domains shown)
VH: HVQLVQSGADVKKPGSSVKVSCKFSGGTFNNDSINWVRQAPGQGLEWMGVIMPFFGATRFAPKFQGRVTLTADKFTSTGYMELGSLKSDDTAVYYCARDKPPDDKWADYGMDVWGQGTTVTVSS
VL: SYELTQPPSVSVSPGQTARITCSGDALPKQYVYWYQQKTGQAPVLVIYKDTERPSGIPERFSGSTSGTTVTLTISGVQADDEADYFCQSADRNANYRVFGGGTKLTVL
notes: subject PA01; also called Clone PA01P2E06
B3: PA01P2C05 (antibody, V domains shown)
VH: QLLLQESGPGLVKPSETLSLSCTVSAGSITSINYSWGWIRQPPGKGLEWIASVYFSGSIYYNPSLKSRVAISVDTSKNTFSLNLTSVTAADTAVYYCARLRLDTGRDSSGLSYREHFDYWAQGTLVTVSS
VL: DIQMTQSPSTLSASVGDRVTITCRASQSIGMWLAWFQQKPGKAPKLLIYKASTLESGVPSRFSGSGSGTEFTLTINSLQPDDFATYYCQQYNSYLFTFGPGTKVDIK
notes: subject PA01; also called Clone PA01P2C05
B4: PA01P2A12 (antibody, V domains shown)
VH: QVQLVQSGAEVKKPGASVMLSCKASGYIFTNSDINWVRQAPGQGPEWMGWMNPKSGNTGYEQKFQGRVTMTTNTSISTAYMELSRLRSEDTAVYYCARSTGAVAGNFDYWGQGTPVTVSS
VL: EIVMTQSPATLSVSLGDRATLSCRASQSISRNLAWYQQKPGQAPRLLIYGASIRITDIPARFSGSGSGTEFTLTISSLQSEDFAIYFCQQYNNWRTFGQGTRVELK
notes: subject PA01; also called Clone PA01P2A12
B5: PA01P2A05 (antibody, V domains shown)
VH: QVQLQESGPGLVKPSQTLSLTCTVSGGSMRSGDYYWSWIRQPPGKGLEWIGYIYFTGSSYYNPSLKSRATISVDTSKNQFSLKLNSVTAADTAVYFCARGVDVDLTFFDCWGHGTLVTVSS
VL: SYVLTQPPSVSLAPGKTARITCGGNNIGNKSVHWYQQKPGQAPVLVIYYDSDRPSGIPERFSGSNSGNTATLTINRVEAGDEADYHCQVWDSSTDHRVFGEGTKLTVL
notes: subject PA01; also called Clone PA01P2A05
B6: PA11P1E01 (antibody, human IgG1, V domains shown)
VH: QVQLVQSGSELRRPGASVKVSCKTSGYAFTHFAMNWLRQAPGQGLEWLGWINTHSGNPTYAQGFTGRIVFSLDTSAGTAYLEISSLKAEDTAVYYCARERYFDFWGQGTLVAVSS
VL: QSVLTQPPSASGTPGQRVTISCSGTNSNIGKNFLYWYQQLPGTAPKLLIFSSNQRPSGVPDRFSGSKSGTSASLAISGLRSEDEADYYCAAWDDNLSGWVFGGGTKVTVL
notes: human IgG1
B7: PA11P1C11 (antibody, human IgG1, V domains shown)
VH: B6 VH with R13K, V20L, K23R, A28T, T30I, I68F, T74V, S85G, T109A
VL: B6 VL with N26S, L40V, F50Y, N95S
notes: human IgG1
B8: PA11P1G04 (antibody, human IgG1, V domains shown)
VH: EVQLVESGGGLVQPGGSLRLSCAASGFTFSSYWMSWVRQAPGKGLEWVANIKQDGSEKDYVDSVKGRFTISRDNAKNSLYLQLNSLRAEDTAVYYCARERSTQSSSWYVSSYYSYYGMDVWGQGTTVTVSS
VL: SSELTQDPAVSVALGQTVTITCQGDSLRSFYASWYQQKPGQAPVFVIYGKYNRPSGIPDRFSGSSSGNTASLTITGAQAEDEADYYCNSRDSSDNHLGVFGGGTKLTVL
notes: human IgG1
B9: PA12P3C01 (antibody, human IgG1, V domains shown)
VH: QVQLVQSGAEVKKPGASVKVSCQASGYTFTRYDINWVRQATGQGLEWMGWLNPKSGDTGYAQKFQGRVTMTRDTSISTAYMELTSLTSDDTAVYYCARGVDANHWGQGSLVTVSS
VL: DIVVTQSPDSLAVSLGERATINCKSSQSIFDTSSNKNYLAWFRQRPGQPPQLLIYWASTRESGVPDRFSGSGSGTDFTLTISSLQAEDVAVYYCHQYYSLPHAFGQGTKLEIK
notes: human IgG1
B10: PA11P1D12 (antibody, human IgG1, V domains shown)
VH: QVQLRVSGPGLVNPSETLSLTCIVSGDSLRDYYWSWIRQSPGKGLEWIGYVTESGGAHYNPSLESRVTISVDASKTQFSLNLKSVTAADTAVYYCARDAYSSTWYTVGWFDPWGPGSLVTVSS
VL: EIVLTQSPATLSLSPGERATLSCRASQDVGVYLAWYQQKPGQAPRLIIYDASDRVSGVPARFTGSGSGTDFTLTITSLEPEDFAVYFCQQRTSGLTFGGGTTLEIK
notes: human IgG1
B11: PA11P1C04 (antibody, human IgG1, V domains shown)
VH: QVQLQESGPGLVKPSETLSLTCTVSGGSISSYYWNWIRQPPGKGLEWIGYIYYSGSTNYNPSLKSRATISVDTSKNQFSLKLSSVTAADTAVYYCARANLFGVALRRVLGPFDYWGQGTLVTVSS
VL: DIQMTQSPSSLSASVGDRVTIACRASQSIANYLNWYQQKPGKAPKLLIYAASNLQSGVPSRFSGSGSGTDFTLTISSLQPEDFATYYCQQSYSTPYTFGQGTKLEIK
notes: human IgG1
B12: PA11P1F03 (antibody, human IgG1, V domains shown)
VH: QVQLQQWGAGLLKPSETLSLNCTVYHGSLSTSYWSWIRQPPGRGLEWIGEINDSGATNYNPSLKSRVIISVDTSKDQFSLKLTSVTAADTAMYYCARAPLLWVGESFFYYFDSWGQGILVTVSS
VL: DIQMTQSPSSLSASVGDRVSITCRAGQSIDTYLNWYQHKPGKAPDLLIYTTSTLHSGVPSRFSGSGSGTDFTLTITSLQPEDFAIYYCQQSYKSPYTFGQGTKVEIK
notes: human IgG1
B13: PA12P3E04 (antibody, human IgG1, V domains shown)
VH: EVKVVESGGGLVQPGGSLRLSCAASEFTFTYYWMSWIRQAPGKGLEWVANVNGDATEKYYVDSVKGRFTISRDNPKKTVYLQMNSLRVEDTAVYYCARVGTTVVNDGFDLWGLGTMVTVSS
VL: SYVLTQSHSVSVAPGQTARITCGGENIGGKGVHWYQQKPGQAPLLVVSSDTGRRSVTPDRFSGSNSGDTATLIISRVEAGDEADYYCQVWDPTSEYVFGSGTKVTVL
notes: human IgG1
B14: PA11P1C03 (antibody, human IgG1, V domains shown)
VH: EVQLVQSGGGLVKPGGSLRLSCAASGSTLTNYNINWVRQAPGKGLQWVSSISGTRDYTYYADSVVGRFTISRDNAKNSVYLQMNSLRAEDTAVYYCARGREVGGDYDSYDWGQGTLVTVSS
VL: DIQMTQSPSSLSASVGDRVTITCQASQDISTFLHWYQQKPGKAPSVLIYGASDLKTGVPSRFSGSGSGTHFTLTISSLQPEDIATYYCQQYDHLPLTFGGGTKVEIK
notes: human IgG1
B15: PA14P1D11 (antibody, human IgG1, V domains shown)
VH: EVQLLESGGGLVQPGGSLKLSCVASGFTFSSYAMMWVRQAPGKGLEWISSISSSGGSTYYADSVKGRFTISRDNSKNTLYLQMNSLRVEDTAVYYCAKSHCSTTSCPRAFYYYGMDVWGQGTTVTVSS
VL: DIQMTQSPSSLSASVGDRVTITCRASQTITTYLNWYQQKPGKAPKLLIYAASSLQSGVPSRFSGSGSGTDFTLSLSSLQPEDSATYYCQQSYSTLGAFGGGTKVEIK
notes: subject PA14; also called Clone PA14P1D11

The binders below were run against T1, BSA (UniProt P02769 25-607) (assay: indirect ELISA heat map, hIgG subtracted).
T1 construct: also called bovine serum albumin; immobilized BSA
T1 sequence (P02769 25-607 limits assumed): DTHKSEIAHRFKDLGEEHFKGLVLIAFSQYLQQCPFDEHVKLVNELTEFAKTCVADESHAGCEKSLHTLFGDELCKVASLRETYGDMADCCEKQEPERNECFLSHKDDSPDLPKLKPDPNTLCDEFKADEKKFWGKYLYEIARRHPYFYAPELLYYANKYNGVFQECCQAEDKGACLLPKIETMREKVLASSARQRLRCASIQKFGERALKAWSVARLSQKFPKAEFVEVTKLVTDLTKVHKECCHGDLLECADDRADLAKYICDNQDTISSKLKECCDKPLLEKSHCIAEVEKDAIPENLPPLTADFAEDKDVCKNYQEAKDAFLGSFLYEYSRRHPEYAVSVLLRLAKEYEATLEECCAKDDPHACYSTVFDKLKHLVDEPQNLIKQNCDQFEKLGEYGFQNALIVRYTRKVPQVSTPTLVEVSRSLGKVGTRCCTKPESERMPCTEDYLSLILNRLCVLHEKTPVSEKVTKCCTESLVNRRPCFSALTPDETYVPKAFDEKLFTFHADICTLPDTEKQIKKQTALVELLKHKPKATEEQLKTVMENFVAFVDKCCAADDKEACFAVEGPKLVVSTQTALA

Binding result, no binding (tested: 2 ng/µL):
B1
B2
B3
B4
B5

Target: T1, BSA
Assay: indirect ELISA heat map, hIgG subtracted
Remark: another data set of the same source

Binding result, no binding (tested: 2 ng/µL):
B6
B7
B8
B9
B10
B11
B12
B13
B14
B15

Reference: patent publication US20210246195A1 (CZ BIOHUB SF, published 2021)
